Molecular target: P69P4
Assay: BLI

- Kd: 3.88 pM
B1: biotinylated natural Ara h 2 (natural protein)
chain: RQQWELQGDRRCQSQLERANLRPCEQHLMQKIQRDEDSYGRDPYSPSQDPYSPSQDPDRRDPYSPSPYDRRGAGSSQHQERCCNELNEFENNQRCMCEALQQIMENQSDRLQGRQQEQQFKRELRNLPQQCGLRAPQRCDLEVESGGRDRY
modifications: biotin (position not given)

— paper doi:10.1101/2024.05.08.592267 (2024)
